# Experimental data from US20240065978A1, “FORMULATIONS OF GLUCAGON-LIKE-PEPTIDE-2 (GLP-2) ANALOGUES” (Zealand Pharma A/S, priority 2018, published 2024).
# How the values were obtained:
# [1] = in vivo; cited from earlier work
# [2] = covalently linked oligomers by size exclusion HPLC (peak area %); assay type: physicochemical; conditions: for Covalently linked oligomers: 24 months at 2-8° C., 230 mM mannitol, 15 mM histidine, pH 7
# Description: As shown in the examples, this amount of covalently bonded oligomers can be determined using size exclusion chromatography and determining the area under the peaks for monomeric GLP-2 analogue and oligomers respectively. This can be done using a Dionex Ultimate3000 HPLC system, giving a linear gradient, at a flow rate of 0.5 mL/min was used for the analysis. The mobile phase consisted of 0.1% TFA in 45% acetonitrile and 55% Milli-Q water. A wavelength of 215 nm was used for detection. This means that the formulations of the present invention generally contain the GLP-2 analogue at a concentration of about 2 mg/mL to about 30 mg/mL, more preferably at a concentration of about 15 mg/mL to about 25 mg/mL, and most preferably at a concentration of about 20 mg/mL. In some aspects of the present invention, it is preferred that the concentration of the GLP-2 analogue is selected so that the formulation contains 10% or less, more preferably 5% or less, more preferably 4% or less, more preferably 3% or less, and more preferably 2% or less of the GLP-2 analogue in the form of covalently bonded oligomeric products, preferably after 18 months storage. By way of illustration, the amount of covalently bonded oligomeric product may be in the range of between 2% to 5%, more preferably in the range of between 2% to 4%, and most preferably in the range of between 2% to 3%.
# For detection of covalently linked oligomers, a Dionex Ultimate3000 HPLC system, giving a linear gradient, at a flow rate of 0.5 mL/min was used for the analysis. The mobile phase consisted of 0.1% TFA in 45% acetonitrile and 55% Milli-Q water. A wavelength of 215 nm was used for detection. The injection amount was 4 μg of peptide. The column used for the separation of the covalently formed peptides was a TSKgel SuperSW2000 (TSK BioScience) with a 4 μm particle size and dimensions of 300*4.6 mm. The overall runtime was 25 minutes. For chemical stability evaluation of the peptide monomer a C18 column with an acidic mobile phase and an acetonitrile gradient was used.
# Stock solutions of mannitol (700 mM), L-histidine (200 mM) and ZP1848 peptide (acetate salt; 60 mg/mL) in water (Milli-Q) were prepared. Mannitol and histidine solutions were mixed in amounts appropriate to give 230 mM mannitol and 15 mM histidine. Peptide stock solution was added to a final concentration of 0.2, 2 and 20 mg/mL, respectively. Water was added up to 90% of final volume. If necessary, pH was adjusted to pH 7 using 1 M acetic acid/0.5 M L-arginine. Water was added up to the final volume.
# The oligomers of ZP1848-acetate are well separated from the ZP1848-acetate monomer and are all integrated as one peak. The area percentage of the peaks was used to quantify the amount of oligomers, in particular covalently linked dimers and trimers. […]
# (§1) Stock solutions of mannitol (700 mM), histidine (200 mM) and ZP1848 peptide solution (acetate salt; approx. 50 mg/mL) in Milli-Q water were prepared. Final concentration of peptide was 20 mg/mL, mannitol 230 mM, histidine 15 mM. Peptide stock solution was added to give the desired final peptide content. Water was added up to 90% of final volume. If necessary, pH was then adjusted to the desired formulation pH using 1 M acetic acid/0.5 M L-arginine. Water was added up to the final volume. Each formulation was filled in vials. Sample containers were visually inspected for clarity and viscosity and analysed for covalently linked oligomers by SEC, and peptide monomer stability by HPLC.
# [3] = viscosity measured with microVISC viscosimeter; assay type: physicochemical; conditions: 20 mg/ml ZP1848-acetate, pH 7, acetate 6-15% (FIG. 2)
# Description: In the examples below, the viscosity of the liquid formulations of the present invention is shown to be dependent on the total acetate concentration. Preferably, the formulations have a viscosity between 0.8 and 2.0 mPa/sec as measured at 25° C. Conveniently, the viscosity may be measured by using microVISC™. In parallel, the hydrodynamic radius may be measured using a Dynamic Light Scattering, DLS, Platereader (Wyatt DynaPro II). Samples were prepared having a drug substance (DS) of the GLP-2analogue containing 6% acetate and to mimic DS having 7.8-15% acetate, then acetate was added. Data from manufacturing formulations having varied the acetate concentration from 6.7-15% is shown below in FIG. 2. The effect of controlling the total acetate concentration is that the injectability of formulations of the present invention can be modulated, for example by reducing the total acetate concentration to provide a less viscous formulation that may be more easily injected.
# Samples were prepared using a drug substance (DS) of the GLP-2 analogue ZP1848-acetate containing 6% acetate. […]
# Vials were visually inspected for clarity and viscosity. The viscosity was measured using a microVISC™ viscosimeter. The hydrodynamic radius was measured using a Wyatt DynaPro II Dynamic Light Scattering (DLS) Platereader. […]
# [4] = visual inspection for clarity and viscosity; assay type: physicochemical; conditions: 20 mg/mL; for Visual inspection Clear and non-viscous?: mannitol 230 mM, 24 hours at room temperature
# Description: Stock solutions of mannitol (700 mM), phosphate buffer (200 mM) and ZP1848-acetate peptide (60.2 mg/mL) in water (Milli-Q) were prepared. Water was added up to 90% of final volume. If necessary, pH was then adjusted to the desired formulation pH using 1 M acetic acid/0.5 M L-arginine. Water was added up to the final volume. Sample containers were visually inspected for clarity and viscosity after 24 hours at room temperature.
# Vials were visually inspected for clarity and viscosity. The viscosity was measured using a microVISC™ viscosimeter. The hydrodynamic radius was measured using a Wyatt DynaPro II Dynamic Light Scattering (DLS) Platereader. The sample size loaded on the plates was 170 μl. […]
# as §1
# Stock solutions of mannitol (700 mM), histidine (200 mM), and ZP1848 peptide solution (acetate salt; approx. 50 mg/mL) in Milli-Q water were prepared. Final concentration of peptide was 20 and 2 mg/mL, mannitol 230 mM, and histidine 15 mM. Water was added up to 90% of final volume. If necessary, pH was then adjusted to the desired formulation pH (7.0) using 1 M acetic acid/0.5 M L-arginine. Water was added up to the final volume. Each formulation was filled in vials. Sample containers were visually inspected for clarity and viscosity and analysed for peptide monomer stability by HPLC.
compound,measurement,setting,value
CC[C@H](C)[C@H](NC(=O)[C@H](Cc1ccccc1)NC(=O)[C@H](CC(=O)O)NC(=O)[C@H](CCCNC(=N)N)NC(=O)[C@H](C)NC(=O)[C@H](C)NC(=O)[C@H](CC(C)C)NC(=O)[C@H](CC(N)=O)NC(=O)[C@H](CC(=O)O)NC(=O)[C@H](CC(C)C)NC(=O)[C@@H](NC(=O)[C@@H](NC(=O)[C@H](CC(N)=O)NC(=O)[C@H](CCSC)NC(=O)[C@H](CCC(=O)O)NC(=O)[C@H](CC(=O)O)NC(=O)[C@H](CO)NC(=O)[C@H](Cc1ccccc1)NC(=O)[C@H](CO)NC(=O)CNC(=O)[C@H](CC(=O)O)NC(=O)CNC(=O)[C@@H](N)Cc1c[nH]cn1)[C@@H](C)O)[C@@H](C)CC)C(=O)N[C@@H](CC(N)=O)C(=O)N[C@@H](Cc1c[nH]c2ccccc12)C(=O)N[C@@H](CC(C)C)C(=O)N[C@H](C(=O)N[C@@H](CCC(N)=O)C(=O)N[C@H](C(=O)N[C@@H](CCCCN)C(=O)N[C@H](C(=O)N[C@H](C(=O)N[C@@H](CC(=O)O)C(=O)O)[C@@H](C)O)[C@@H](C)CC)[C@@H](C)O)[C@@H](C)CC [teduglutide],half-life,[1],about two
"(H-HGEGTFSSELATILDALAARDFIAWLIATKITDKKKKKK-NH2), x(CH3COOH) (also: acetate salt) [ZP1848-acetate]",Covalently linked oligomers,[2]; 0.2 mg/mL,2.60%
same,"formation of covalent oligomers, increase per week","[2]; 2 mg/mL, 3 weeks at 40° C.",0.27%
same,formation of covalent oligomers,"[2]; 2 mg/mL, after 3 weeks at 40° C.",1.2%
same,"formation of covalent oligomers, increase per week","[2]; 20 mg/mL, 3 weeks at 40° C.",0.21%
same,Covalently linked oligomers,[2]; 20 mg/mL,1.35%
same,formation of covalent oligomers,"[2]; 20 mg/mL, after 3 weeks at 40° C.",0.9%
same,concentration dependence for oligomer formation,[2]; long term storage at 2-8° C.,inversely dependent on increasing concentration of the GLP-2 analogue
same,formation of covalent oligomers,"[2]; sorbitol, 3 weeks at 40° C.",1.1%
same,viscosity as a function of acetate concentration,[3],increases in a non-linear manner at higher acetate concentration
same,Visual inspection,"[4]; pH 6.5-7.5, 20-50 mM phosphate buffer, 24 hrs at room temperature",turbid and/or highly viscous
H-HGEGTFSSELATILDALAARDFIAWLIATKITDKKKKKK-NH2 [ZP1848],Covalently linked oligomers,[2]; 2 mg/mL,1.91%
same,initial value of the amount of oligomer,"[2]; initial, before storage",less than 0.1%
same,Visual inspection Clear and non-viscous?,"[4]; pH 6.5, phosphate 20 mM",No
same,Visual inspection Clear and non-viscous?,"[4]; pH 7.0, phosphate 20 mM",No
same,Visual inspection Clear and non-viscous?,"[4]; pH 7.0, phosphate 50 mM",No
same,Visual inspection Clear and non-viscous?,"[4]; pH 7.5, phosphate 20 mM",No
